Biological target: T1, human immunodeficiency virus 1 (HIV-1) (group M, subtype B, Isolate MN) gp120 Protein (HIV-1 (group M, subtype B, isolate MN), UniProt P05877 30-513)
T1 construct: also called gp120 core; His-tagged gp120; source: bought: Sino Biological (Catalog No: 40405-V08H)
Assay: ELISA; plates coated with human TNFR1 or TNFR2 (5 µg/mL, carbonate buffer pH 9.6, overnight 4 °C), blocked with 3% BSA; serial dilutions of gp120, 2 h room temperature; wash 20 mM Tris-HCl, 500 mM NaCl, 0.05% Tween-20, pH 7.5; bound gp120 detected with anti-His-HRP
Conditions: both partners purified

B1: human TNFR2 / CD120b protein, extracellular domain (residues 1-257) (domain or fragment, UniProt P20333-1 23-257, looked up)
chain: LPAQVAFTPYAPEPGSTCRLREYYDQTAQMCCSKCSPGQHAKVFCTKTSDTVCDSCEDSTYTQLWNWVPECLSCGSRCSSDQVETQACTREQNRICTCRPGWYCALSKQEGCRLCAPLRKCRPGFGVARPGTETSDVVCKPCAPGTFSNTTSSTDICRPHQICNVVAIPGNASMDAVCTSTSPTRSMAPGAVHLPQPVSTRSQHTQPTPEPSTAPSTSFLLPMGPSPPAEGSTGD
notes: also called tumor necrosis factor receptor type II; immobilized TNFR2; source: bought: Sino Biological (Catalog No: 10417-H08H)
binding result: binds
